Molecular target: human Tau441 (2N4R), recombinant, phosphorylated in vitro by PKA (human) (UniProt P10636)
Experiment: cross-linking + other: mass photometry; BS3 amine-amine crosslinking of purified 4R tau (tau441, with or without PKA phosphorylation) with purified recombinant 14-3-3 β, 20-fold molar excess, 1× PBS pH 8.0, 30 min room temperature; mass photometry in DPBS at room temperature

Chain of human Tau441 (2N4R), recombinant, phosphorylated in vitro by PKA (human) (P10636 other isoform, or with tags, fused parts or gaps): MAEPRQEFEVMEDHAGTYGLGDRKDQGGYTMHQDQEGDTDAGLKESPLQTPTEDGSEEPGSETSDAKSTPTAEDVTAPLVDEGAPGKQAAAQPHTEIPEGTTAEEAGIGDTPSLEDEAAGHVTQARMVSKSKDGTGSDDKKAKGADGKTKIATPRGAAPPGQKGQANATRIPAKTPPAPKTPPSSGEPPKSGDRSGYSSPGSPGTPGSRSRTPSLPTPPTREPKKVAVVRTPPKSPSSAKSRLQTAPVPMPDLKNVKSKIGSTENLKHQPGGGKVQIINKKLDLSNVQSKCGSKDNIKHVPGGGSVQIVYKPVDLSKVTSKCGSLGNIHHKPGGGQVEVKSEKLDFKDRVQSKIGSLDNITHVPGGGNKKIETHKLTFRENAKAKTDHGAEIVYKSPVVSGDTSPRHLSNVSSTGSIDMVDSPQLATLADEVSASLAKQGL

stoichiometry N (14-3-3-β per tau): 2
Substance: purified recombinant 14-3-3 β (from UniProt P31946 1-246) (natural protein)
